Data taken from article PMC6559208, “Phylogeny‐guided characterization of glycosyltransferases for epothilone glycosylation” (Microbial Biotechnology, 2019).

Assays:
[1] = tested on: C/C(=C\c1csc(C)n1)[C@@H]1C[C@@H]2O[C@@H]2CCC[C@H](C)[C@H](O)[C@@H](C)C(=O)C(C)(C)[C@@H](O)CC(=O)O1; assay: UPLC-PDA glycosylation assay, Michaelis-Menten fit; type: biochemical, Bacillus atrophaeus; details: 10 mM UDP-glucose, 10 mM MgCl2, Tris-HCl pH 7.5, 37 °C, 10 min
From the text: UPLC-PDA glycosylation assay, Michaelis-Menten fit on BaGT

[2] = tested on: C/C(=C\c1csc(C)n1)[C@@H]1C[C@@H]2O[C@@H]2CCC[C@H](C)[C@H](O)[C@@H](C)C(=O)C(C)(C)[C@@H](O)CC(=O)O1; assay: UPLC-PDA glycosylation assay, Michaelis-Menten fit; type: biochemical, Bacillus velezensis; details: 10 mM UDP-glucose, 10 mM MgCl2, Tris-HCl pH 7.5, 37 °C, 10 min
From the text: UPLC-PDA glycosylation assay, Michaelis-Menten fit on BamGT

[3] = tested on: C/C(=C\c1csc(C)n1)[C@@H]1C[C@@H]2O[C@@H]2CCC[C@H](C)[C@H](O)[C@@H](C)C(=O)C(C)(C)[C@@H](O)CC(=O)O1; assay: UPLC-PDA glycosylation assay, Michaelis-Menten fit; type: biochemical, Bacillus licheniformis; details: 10 mM UDP-glucose, 10 mM MgCl2, Tris-HCl pH 7.5, 37 °C, 10 min
From the text: UPLC-PDA glycosylation assay, Michaelis-Menten fit on YjiC

[4] = target: T1, BsGT-2 (Bacillus subtilis, UniProt O05496); assay: LC-MS conversion assay; type: biochemical; details: assay mix 0.5 mM epothilone A, 3 mM UDP-glucose, 10 mM MgCl2, Tris-HCl, 400 μg/ml enzyme, no HPLC product peak, Km not determined
T1 construct: gene ydhE; synthetic gene in pET28a, His tag, E. coli BL21(DE3), nickel-purified
T1 sequence (O05496 whole entry): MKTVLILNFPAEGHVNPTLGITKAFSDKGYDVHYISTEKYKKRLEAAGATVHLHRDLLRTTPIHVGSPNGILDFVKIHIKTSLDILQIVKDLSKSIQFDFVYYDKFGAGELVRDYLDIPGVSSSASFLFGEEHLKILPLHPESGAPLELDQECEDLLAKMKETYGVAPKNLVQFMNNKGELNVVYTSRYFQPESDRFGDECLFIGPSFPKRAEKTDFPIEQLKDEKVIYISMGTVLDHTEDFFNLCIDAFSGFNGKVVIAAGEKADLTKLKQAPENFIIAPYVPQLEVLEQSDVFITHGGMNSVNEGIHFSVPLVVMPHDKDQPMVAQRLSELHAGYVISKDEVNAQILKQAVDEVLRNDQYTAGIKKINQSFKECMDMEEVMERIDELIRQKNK

[5] = tested on: T2, BcGT-1; assay: UPLC-PDA glycosylation assay, Michaelis-Menten fit; type: biochemical, Bacillus cereus; details: 10 mM UDP-glucose, 10 mM MgCl2, Tris-HCl pH 7.5, 37 °C, 10 min; read-out: Acceptor substrate (epothilone A) / K m
T2 construct: synthetic gene in pET28a, His tag, E. coli BL21(DE3), nickel-purified
From the text: UPLC-PDA glycosylation assay, Michaelis-Menten fit on BcGT-1

[6] = tested on: T3, BssGT; assay: UPLC-PDA glycosylation assay, Michaelis-Menten fit; type: biochemical, Bacillus inaquosorum; details: 10 mM UDP-glucose, 10 mM MgCl2, Tris-HCl pH 7.5, 37 °C, 10 min; read-out: Acceptor substrate (epothilone A) / K m
T3 construct: synthetic gene in pET28a, His tag, E. coli BL21(DE3), nickel-purified
From the text: UPLC-PDA glycosylation assay, Michaelis-Menten fit on BssGT

[7] = tested on: C/C(=C\c1csc(C)n1)[C@@H]1C[C@@H]2O[C@@H]2CCC[C@H](C)[C@H](O)[C@@H](C)C(=O)C(C)(C)[C@@H](O)CC(=O)O1; assay: UPLC-PDA glycosylation assay, Michaelis-Menten fit; type: biochemical, Bacillus subtilis; details: 10 mM UDP-glucose, 10 mM MgCl2, Tris-HCl pH 7.5, 37 °C, 10 min
From the text: UPLC-PDA glycosylation assay, Michaelis-Menten fit on YojK

## BaGT (Bacillus atrophaeus 1942)
[1]
  Km: 113.66 ± 10.55 µM
  kcat: 0.113 ± 0.00417 s⁻¹
  kcat/Km: 990 M⁻¹ s⁻¹

## BamGT (Bacillus velezensis FZB42)
[2]
  Km: 2245.74 ± 311.96 µM
  kcat: 0.0182 ± 0.00117 s⁻¹
  kcat/Km: 8.33 M⁻¹ s⁻¹

## YjiC (Bacillus licheniformis DSM 13 = ATCC 14580)
[3]
  Km: 94.58 ± 2.95 µM
  kcat: 0.192 ± 0.00317 s⁻¹
  kcat/Km: 2030 M⁻¹ s⁻¹

## C/C(=C\c1csc(C)n1)[C@@H]1C[C@@H]2O[C@@H]2CCC[C@H](C)[C@H](O)[C@@H](C)C(=O)C(C)(C)[C@@H](O)CC(=O)O1 [epothilone A]
[4]
  % conversion after 10 h: 0.03%
[5]
  Km: 1200 ± 215 µM
[6]
  Km: 1590 ± 117 µM

## YojK (Bacillus subtilis subsp. subtilis str. 168)
[7]
  Km: 1720.77 ± 161.35 µM
  kcat: 0.0205 ± 0.00117 s⁻¹
  kcat/Km: 11.8 M⁻¹ s⁻¹
